Measured values: publication PMC10540216, “Activity Guided Azide-methyllysine Photo-trapping for Substrate Profiling of Lysine Demethylases” (Journal of the American Chemical Society, 2023)

B1: SF3B1_HUMAN (protein, UniProt O75533 1-1304, looked up)
Splicing factor 3B subunit 1: MAKIAKTHEDIEAQIREIQGKKAALDEAQGVGLDSTGYYDQEIYGGSDSRFAGYVTSIAATELEDDDDDYSSSTSLLGQKKPGYHAPVALLNDIPQSTEQYDPFAEHRPPKIADREDEYKKHRRTMIISPERLDPFADGGKTPDPKMNARTYMDVMREQHLTKEEREIRQQLAEKAKAGELKVVNGAAASQPPSKRKRRWDQTADQTPGATPKKLSSWDQAETPGHTPSLRWDETPGRAKGSETPGATPGSKIWDPTPSHTPAGAATPGRGDTPGHATPGHGGATSSARKNRWDETPKTERDTPGHGSGWAETPRTDRGGDSIGETPTPGASKRKSRWDETPASQMGGSTPVLTPGKTPIGTPAMNMATPTPGHIMSMTPEQLQAWRWEREIDERNRPLSDEELDAMFPEGYKVLPPPAGYVPIRTPARKLTATPTPLGGMTGFHMQTEDRTMKSVNDQPSGNLPFLKPDDIQYFDKLLVDVDESTLSPEEQKERKIMKLLLKIKNGTPPMRKAALRQITDKAREFGAGPLFNQILPLLMSPTLEDQERHLLVKVIDRILYKLDDLVRPYVHKILVVIEPLLIDEDYYARVEGREIISNLAKAAGLATMISTMRPDIDNMDEYVRNTTARAFAVVASALGIPSLLPFLKAVCKSKKSWQARHTGIKIVQQIAILMGCAILPHLRSLVEIIEHGLVDEQQKVRTISALAIAALAEAATPYGIESFDSVLKPLWKGIRQHRGKGLAAFLKAIGYLIPLMDAEYANYYTREVMLILIREFQSPDEEMKKIVLKVVKQCCGTDGVEANYIKTEILPPFFKHFWQHRMALDRRNYRQLVDTTVELANKVGAAEIISRIVDDLKDEAEQYRKMVMETIEKIMGNLGAADIDHKLEEQLIDGILYAFQEQTTEDSVMLNGFGTVVNALGKRVKPYLPQICGTVLWRLNNKSAKVRQQAADLISRTAVVMKTCQEEKLMGHLGVVLYEYLGEEYPEVLGSILGALKAIVNVIGMHKMTPPIKDLLPRLTPILKNRHEKVQENCIDLVGRIADRGAEYVSAREWMRICFELLELLKAHKKAIRRATVNTFGYIAKAIGPHDVLATLLNNLKVQERQNRVCTTVAIAIVAETCSPFTVLPALMNEYRVPELNVQNGVLKSLSFLFEYIGEMGKDYIYAVTPLLEDALMDRDLVHRQTASAVVQHMSLGVYGFGCEDSLNHLLNYVWPNVFETSPHVIQAVMGALEGLRVAIGPCRMLQYCLQGLFHPARKVRDVYWKIYNSIYIGSQDALIAHYPRIYNDDKNTYIRYELDYIL
B2: TR150_HUMAN (protein, UniProt Q9Y2W1 2-955, looked up)
Thyroid hormone …: SKTNKSKSGSRSSRSRSASRSRSRSFSKSRSRSRSLSRSRKRRLSSRSRSRSYSPAHNRERNHPRVYQNRDFRGHNRGYRRPYYFRGRNRGFYPWGQYNRGGYGNYRSNWQNYRQAYSPRRGRSRSRSPKRRSPSPRSRSHSRNSDKSSSDRSRRSSSSRSSSNHSRVESSKRKSAKEKKSSSKDSRPSQAAGDNQGDEAKEQTFSGGTSQDTKASESSKPWPDATYGTGSASRASAVSELSPRERSPALKSPLQSVVVRRRSPRPSPVPKPSPPLSSTSQMGSTLPSGAGYQSGTHQGQFDHGSGSLSPSKKSPVGKSPPSTGSTYGSSQKEESAASGGAAYTKRYLEEQKTENGKDKEQKQTNTDKEKIKEKGSFSDTGLGDGKMKSDSFAPKTDSEKPFRGSQSPKRYKLRDDFEKKMADFHKEEMDDQDKDKAKGRKESEFDDEPKFMSKVIGANKNQEEEKSGKWEGLVYAPPGKEKQRKTEELEEESFPERSKKEDRGKRSEGGHRGFVPEKNFRVTAYKAVQEKSSSPPPRKTSESRDKLGAKGDFPTGKSSFSITREAQVNVRMDSFDEDLARPSGLLAQERKLCRDLVHSNKKEQEFRSIFQHIQSAQSQRSPSELFAQHIVTIVHHVKEHHFGSSGMTLHERFTKYLKRGTEQEAAKNKKSPEIHRRIDISPSTFRKHGLAHDEMKSPREPGYKAEGKYKDDPVDLRLDIERRKKHKERDLKRGKSRESVDSRDSSHSRERSAEKTEKTHKGSKKQKKHRRARDRSRSSSSSSQSSHSYKAEEYTEETEEREESTTGFDKSRLGTKDFVGPSERGGGRARGTFQFRARGRGWGRGNYSGNNNNNSNNDFQKRNREEEWDPEYTPKSKKYYLHDDREGEGSDKWVSRGRGRGAFPRGRGRFMFRKSSTSPKWAHDKFSGEEGEIEDDESGTENREEKDNIQPTTE
B3: RBM26_HUMAN (protein, UniProt Q5T8P6 1-1007, looked up)
RNA-binding protein 26: MVSKMIIENFEALKSWLSKTLEPICDADPSALAKYVLALVKKDKSEKELKALCIDQLDVFLQKETQIFVEKLFDAVNTKSYLPPPEQPSSGSLKVEFFPHQEKDIKKEEITKEEEREKKFSRRLNHSPPQSSSRYRENRSRDERKKDDRSRKRDYDRNPPRRDSYRDRYNRRRGRSRSYSRSRSRSWSKERLRERDRDRSRTRSRSRTRSRERDLVKPKYDLDRTDPLENNYTPVSSVPSISSGHYPVPTLSSTITVIAPTHHGNNTTESWSEFHEDQVDHNSYVRPPMPKKRCRDYDEKGFCMRGDMCPFDHGSDPVVVEDVNLPGMLPFPAQPPVVEGPPPPGLPPPPPILTPPPVNLRPPVPPPGPLPPSLPPVTGPPPPLPPLQPSGMDAPPNSATSSVPTVVTTGIHHQPPPAPPSLFTADTYDTDGYNPEAPSITNTSRPMYRHRVHAQRPNLIGLTSGDMDLPPREKPPNKSSMRIVVDSESRKRTIGSGEPGVPTKKTWFDKPNFNRTNSPGFQKKVQFGNENTKLELRKVPPELNNISKLNEHFSRFGTLVNLQVAYNGDPEGALIQFATYEEAKKAISSTEAVLNNRFIKVYWHREGSTQQLQTTSPKVMQPLVQQPILPVVKQSVKERLGPVPSSTIEPAEAQSASSDLPQNVTKLSVKDRLGFVSKPSVSATEKVLSTSTGLTKTVYNPAALKAAQKTLLVSTSAVDNNEAQKKKQEALKLQQDVRKRKQEILEKHIETQKMLISKLEKNKTMKSEDKAEIMKTLEVLTKNITKLKDEVKAASPGRCLPKSIKTKTQMQKELLDTELDLYKKMQAGEEVTELRRKYTELQLEAAKRGILSSGRGRGIHSRGRGAVHGRGRGRGRGRGVPGHAVVDHRPRALEISAFTESDREDLLPHFAQYGEIEDCQIDDSSLHAVITFKTRAEAEAAAVHGARFKGQDLKLAWNKPVTNISAVETEEVEPDEEEFQEESLVDDSLLQDDDEEEEDNESRSWRR
B4: SF3B3_HUMAN (protein, UniProt Q15393 1-1217, looked up)
Splicing factor 3B subunit 3: MFLYNLTLQRATGISFAIHGNFSGTKQQEIVVSRGKILELLRPDPNTGKVHTLLTVEVFGVIRSLMAFRLTGGTKDYIVVGSDSGRIVILEYQPSKNMFEKIHQETFGKSGCRRIVPGQFLAVDPKGRAVMISAIEKQKLVYILNRDAAARLTISSPLEAHKANTLVYHVVGVDVGFENPMFACLEMDYEEADNDPTGEAAANTQQTLTFYELDLGLNHVVRKYSEPLEEHGNFLITVPGGSDGPSGVLICSENYITYKNFGDQPDIRCPIPRRRNDLDDPERGMIFVCSATHKTKSMFFFLAQTEQGDIFKITLETDEDMVTEIRLKYFDTVPVAAAMCVLKTGFLFVASEFGNHYLYQIAHLGDDDEEPEFSSAMPLEEGDTFFFQPRPLKNLVLVDELDSLSPILFCQIADLANEDTPQLYVACGRGPRSSLRVLRHGLEVSEMAVSELPGNPNAVWTVRRHIEDEFDAYIIVSFVNATLVLSIGETVEEVTDSGFLGTTPTLSCSLLGDDALVQVYPDGIRHIRADKRVNEWKTPGKKTIVKCAVNQRQVVIALTGGELVYFEMDPSGQLNEYTERKEMSADVVCMSLANVPPGEQRSRFLAVGLVDNTVRIISLDPSDCLQPLSMQALPAQPESLCIVEMGGTEKQDELGERGSIGFLYLNIGLQNGVLLRTVLDPVTGDLSDTRTRYLGSRPVKLFRVRMQGQEAVLAMSSRSWLSYSYQSRFHLTPLSYETLEFASGFASEQCPEGIVAISTNTLRILALEKLGAVFNQVAFPLQYTPRKFVIHPESNNLIIIETDHNAYTEATKAQRKQQMAEEMVEAAGEDERELAAEMAAAFLNENLPESIFGAPKAGNGQWASVIRVMNPIQGNTLDLVQLEQNEAAFSVAVCRFSNTGEDWYVLVGVAKDLILNPRSVAGGFVYTYKLVNNGEKLEFLHKTPVEEVPAAIAPFQGRVLIGVGKLLRVYDLGKKKLLRKCENKHIANYISGIQTIGHRVIVSDVQESFIWVRYKRNENQLIIFADDTYPRWVTTASLLDYDTVAGADKFGNICVVRLPPNTNDEVDEDPTGNKALWDRGLLNGASQKAEVIMNYHVGETVLSLQKTTLIPGGSESLVYTTLSGGIGILVPFTSHEDHDFFQHVEMHLRSEHPPLCGRDHLSFRSYYFPVKNVIDGDLCEQFNSMEPNKQKNVSEELDRTPPEVSKKLEDIRTRYAF
B5: CAND1_HUMAN (protein, UniProt Q86VP6 2-1230, looked up)
Cullin-associated …: ASASYHISNLLEKMTSSDKDFRFMATNDLMTELQKDSIKLDDDSERKVVKMILKLLEDKNGEVQNLAVKCLGPLVSKVKEYQVETIVDTLCTNMLSDKEQLRDISSIGLKTVIGELPPASSGSALAANVCKKITGRLTSAIAKQEDVSVQLEALDIMADMLSRQGGLLVNFHPSILTCLLPQLTSPRLAVRKRTIIALGHLVMSCGNIVFVDLIEHLLSELSKNDSMSTTRTYIQCIAAISRQAGHRIGEYLEKIIPLVVKFCNVDDDELREYCIQAFESFVRRCPKEVYPHVSTIINICLKYLTYDPNYNYDDEDEDENAMDADGGDDDDQGSDDEYSDDDDMSWKVRRAAAKCLDAVVSTRHEMLPEFYKTVSPALISRFKEREENVKADVFHAYLSLLKQTRPVQSWLCDPDAMEQGETPLTMLQSQVPNIVKALHKQMKEKSVKTRQCCFNMLTELVNVLPGALTQHIPVLVPGIIFSLNDKSSSSNLKIDALSCLYVILCNHSPQVFHPHVQALVPPVVACVGDPFYKITSEALLVTQQLVKVIRPLDQPSSFDATPYIKDLFTCTIKRLKAADIDQEVKERAISCMGQIICNLGDNLGSDLPNTLQIFLERLKNEITRLTTVKALTLIAGSPLKIDLRPVLGEGVPILASFLRKNQRALKLGTLSALDILIKNYSDSLTAAMIDAVLDELPPLISESDMHVSQMAISFLTTLAKVYPSSLSKISGSILNELIGLVRSPLLQGGALSAMLDFFQALVVTGTNNLGYMDLLRMLTGPVYSQSTALTHKQSYYSIAKCVAALTRACPKEGPAVVGQFIQDVKNSRSTDSIRLLALLSLGEVGHHIDLSGQLELKSVILEAFSSPSEEVKSAASYALGSISVGNLPEYLPFVLQEITSQPKRQYLLLHSLKEIISSASVVGLKPYVENIWALLLKHCECAEEGTRNVVAECLGKLTLIDPETLLPRLKGYLISGSSYARSSVVTAVKFTISDHPQPIDPLLKNCIGDFLKTLEDPDLNVRRVALVTFNSAAHNKPSLIRDLLDTVLPHLYNETKVRKELIREVEMGPFKHTVDDGLDIRKAAFECMYTLLDSCLDRLDIFEFLNHVEDGLKDHYDIKMLTFLMLVRLSTLCPSAVLQRLDRLVEPLRATCTTKVKANSVKQEFEKQDELKRSAMRAVAALLTIPEAEKSPLMSEFQSQISSNPELAAIFESIQKDSSSTNLESMDTS

Test system: KDM4A-I71AzF
Test: CASI: photo-crosslinking with HEK293T cell extracts, StrepTactin enrichment and LC-MS/MS proteomics;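 also: lysates from HEK293T cells pretreated with a KDM4 inhibitor to raise proteome methylation, affinity-purified after ±UV, gel-resolved, trypsin-digested, with exclusive unique peptides per protein averaged per condition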
Format: binding, human
Details: sheet "Final results but with 0.01"

| Molecule | Fold change (+UV/-UV) |
| --- | --- |
| B1 | 2 |
| B2 | 1.333 |
| B3 | 0.3333 |
| B4 | 0.7381 |
| B5 | 0.3333 |
